Measured values as given in patent US20130065244A1, “METHOD FOR PRODUCING cAMP USING [sequence] OLFACTORY RECEPTOR” (published 2013).

B1: chimeric olfactory receptor chimeraIC3 (receptor)
chain: MNGTEGPNFYVPFSNKTGVVEQKLISEEDLEFMTLSDGNHSGAVFTLLGFSDYPELTIPLFLIFLTIYSITVVGNIGMIVIIRINPKLHIPMYFFLSHLSFVDFCYSSIVAPKMLVNLVTMNRGISFVGCLVQFFFFCTFVVTESFLLGVMAYDRFVAIRNPLLYTVAMSQRLCAMLVLGSYAWGVVCSLILTCSALNLSFYGFNMINHFFCEFSSLLSLSRSDTSVSQLLLFVFATFNEISTLLIILLSYVFREAQKQVKKIDSCERRFLSGPPRPPSPAPSPSPGPPRPADSLANGRSSKRRPSRLVALREQKAFSTCASHLTAITIFHGTILFLYCVPNSKNSRHTVKVASVFYTVVIPMLNPLIYSLRNKDVKDTVKKIIGTKVYSS
B2: chimeric olfactory receptor chimeraTM7 (receptor)
chain: MNGTEGPNFYVPFSNKTGVVEQKLISEEDLEFMTLSDGNHSGAVFTLLGFSDYPELTIPLFLIFLTIYSITVVGNIGMIVIIRINPKLHIPMYFFLSHLSFVDFCYSSIVAPKMLVNLVTMNRGISFVGCLVQFFFFCTFVVTESFLLGVMAYDRFVAIRNPLLYTVAMSQRLCAMLVLGSYAWGVVCSLILTCSALNLSFYGFNMINHFFCEFSSLLSLSRSDTSVSQLLLFVFATFNEISTLLIILLSYVLIVVTILKMKSASGRRKAFSTCASHLTAITIFHGTILFLYCVPNSKNSRHTPDRLFVFFNWLGYANSAFNPIIYCRSPDFRKAFQRLLCCARRAACRRRAAHGDRPRASGCLARAGPPPSPGAPSDDDDDDAGATPPARLLEPWAGCNGGTTTVDSDSSLDEPGRQGFSSESKV
B3: chimeric olfactory receptor chimera3 (receptor)
chain: MNGTEGPNFYVPFSNKTGVVEQKLISEEDLEFMGAGALALGASEPCNLSSAAPLPDGAATAARLLVLASPPASLLPPASEGSAPLSQQWTAGMGLLLALIVLLIVVGNVLVIVAIAKTPRLQTLTNLTRPMYFFLSHLSFVDFCYSSIVAPKMLVNLVTMNRGISFVGCLVQFFFFCTFVVTESFLLGVMAYDRFVAIRNPLLYTVAMSQRLCAMLVLGSYAWGVVCSLILTCSALNLSFYGFNMINHFFCEFSSLLSLSRSDTSVSQLLLFVFATFNEISTLLIILLSYVLIVVTILKMKSASGRRKAFSTCASHLTAITIFHGTILFLYCVPNSKNSRHTVKVASVFYTVVIPMLNPLIYSLRNKSRDFRKAFQRLLCCARRAACRRRAAHGDRPRASGCLARAGPPPSPGAPSDDDDDDAGATPPARLLEPWAGCNGGTTTVDSDSSLDEPGRQGFSSESKV
B4: chimeric olfactory receptor chimera1 (receptor)
chain: MNGTEGPNFYVPFSNKTGVVEQKLISEEDLEFMTLSDGNHSGAVFTLLGFSDYPELTIPLFLIFLTIYSITVVGNIGMIVIIRINPKLHIPMYFFLSHLSFVDFCYSSIVAPKMLVNLVTMNRGISFVGCLVQFFFFCTFVVTESFLLGVMAYDRFVAIRNPLLYTVAMSQRLCAMLVLGSYAWGVVCSLILTCSALNLSFYGFNMINHFFCEFSSLLSLSRSDTSVSQLLLFVFATFNEISTLLIILLSYVLIVVTILKMKSASGRRKAFSTCASHLTAITIFHGTILFLYCVPNSKNSRHTVKVASVFYTVVIPMLNPLIYSLRNKDFRKAFQRLLCCARRAACRRRAAHGDRPRASGCLARAGPPPSPGAPSDDDDDDAGATPPARLLEPWAGCNGGTTTVDSDSSLDEPGRQGFSSESKV
B5: Rho-mOREG (mouse olfactory receptor for eugenol with N-terminal Rho tag) (receptor)
chain: MNGTEGPNFYVPFSNKTGVVMTLSDGNHSGAVFTLLGFSDYPELTIPLFLIFLTIYSITVVGNIGMIVIIRINPKLHIPMYFFLSHLSFVDFCYSSIVAPKMLVNLVTMNRGISFVGCLVQFFFFCTFVVTESFLLGVMAYDRFVAIRNPLLYTVAMSQRLCAMLVLGSYAWGVVCSLILTCSALNLSFYGFNMINHFFCEFSSLLSLSRSDTSVSQLLLFVFATFNEISTLLIILLSYVLIVVTILKMKSASGRRKAFSTCASHLTAITIFHGTILFLYCVPNSKNSRHTVKVASVFYTVVIPMLNPLIYSLRNKDVKDTVKKIIGTKVYSS
B6: chimeric olfactory receptor chimeraIC3-IC4 (receptor)
chain: MNGTEGPNFYVPFSNKTGVVEQKLISEEDLEFMTLSDGNHSGAVFTLLGFSDYPELTIPLFLIFLTIYSITVVGNIGMIVIIRINPKLHIPMYFFLSHLSFVDFCYSSIVAPKMLVNLVTMNRGISFVGCLVQFFFFCTFVVTESFLLGVMAYDRFVAIRNPLLYTVAMSQRLCAMLVLGSYAWGVVCSLILTCSALNLSFYGFNMINHFFCEFSSLLSLSRSDTSVSQLLLFVFATFNEISTLLIILLSYVFREAQKQVKKIDSCERRFLSGPPRPPSPAPSPSPGPPRPADSLANGRSSKRRPSRLVALREQKAFSTCASHLTAITIFHGTILFLYCVPNSKNSRHTVKVASVFYTVVIPMLNPLIYSLRNKDFRKAFQRLLCCARRAACRRRAAHGDRPRASGCLARAGPPPSPGAPSDDDDDDAGATPPARLLEPWAGCNGGTTTVDSDSSLDEPGRQGFSSESKV
B7: Rho-myc-mOREG (mouse olfactory receptor for eugenol with Rho tag and myc epitope tag) (receptor)
chain: MNGTEGPNFYVPFSNKTGVVEQKLISEEDLEFMTLSDGNHSGAVFTLLGFSDYPELTIPLFLIFLTIYSITVVGNIGMIVIIRINPKLHIPMYFFLSHLSFVDFCYSSIVAPKMLVNLVTMNRGISFVGCLVQFFFFCTFVVTESFLLGVMAYDRFVAIRNPLLYTVAMSQRLCAMLVLGSYAWGVVCSLILTCSALNLSFYGFNMINHFFCEFSSLLSLSRSDTSVSQLLLFVFATFNEISTLLIILLSYVLIVVTILKMKSASGRRKAFSTCASHLTAITIFHGTILFLYCVPNSKNSRHTVKVASVFYTVVIPMLNPLIYSLRNKDVKDTVKKIIGTKVYSS

These molecules were tested against Gαolf (G protein alpha subunit which is specifically expressed on an olfactory epithelium) (mouse) (UniProt Q8CGK7) (assay: not given).

Molecule | concentration of cAMP (EIA, normalised to protein) after isoproterenol
beta-1 adrenergic receptor (β1AR) | 0.956 pmol/µg

These molecules were tested against Gαolf (G protein alpha subunit which is specifically expressed on an olfactory epithelium) (mouse, UniProt Q8CGK7) (assay: cell-based or functional assay).

Molecule | concentration increase value of the cAMP (300 µM eugenol minus 0 µM)
B1 | 0.0017 pmol/microgram
B2 | 0.0056 pmol/microgram
B3 | 0.0009 pmol/microgram
B4 | 0.0185 pmol/microgram
B5 | 0.0061 pmol/microgram
B6 | 0.004 pmol/microgram
B7 | 0.0109 pmol/microgram
